Results from paper PMC12197871.
Where a chain is given by its changes, count along the chain named. Numbers in names are those of the source.

B1: WT GsLDH (Geobacillus stearothermophilus) (protein)
chain: MKNNGGARVVVIGAGFVGASYVFALMNQGIADEIVLIDANESKAIGDAMDFNHGKVFAPKPVDIWHGDYDDCRDADLVVICAGANQKPGETRLDLVDKNIAIFRSIVESVMASGFQGLFLVATNPVDILTYATWKFSGLPHERVIGSGTILDTARFRFLLGEYFSVAPQNVHAYIIGEHGDTELPVWSQAYIGVMPIRKLVESKGEEAQKDLERIFVNVRDAAYQIIEKKGATYYGIAMGLARVTRAILHNENAILTVSAYLDGLYGERDVYIGVPAVINRNGIREVIEIELNDDEKNRFHHSAATLKSVLARAFTR
B2: Triple mutant (Geobacillus stearothermophilus; N293S/Q189L/R104C) (protein)
chain: B1 chain with R104C, Q189L, N293S
B3: Gln189Leu (Geobacillus stearothermophilus; Q189L) (protein)
chain: B1 chain with Q189L

Tests used:
[1] = substrate: CC(=O)C(=O)O; experiment: purified protein, by the assay type; settings: pH 6.5
[2] = substrate: CC(=O)C(=O)O; experiment: purified protein, by the assay type; assay type: biochemical; settings: pH 6.5

Protein | K0.5 [1] | K0.5 [2] | kcat [2]
B1 | 2.8 ± 0.4 mM |  | 
B2 |  | 0.41 ± 0.09 mM | 57 ± 8 s⁻¹
B3 |  | 2.3 ± 0.2 mM | 73 ± 12 s⁻¹
